# Results from patent US20180243432A1.
# Biological target: human HLA-A2 MHC class I molecule on the surface of target cells with no C2 epitope-peptide delivered or added (human)
# Test: flow cytometry, TCR STAR multimer staining of untreated (buffer only) target cells
substance,measurement,value
TCR CMV-pp65-PE STAR multimer reagent (Altor Bioscience Corp.),percent of cells stained,< 5%
